The target of the assay is SARS-CoV-2 spike protein (SARS-CoV-2, UniProt P0DTC2 14-1213).

B1: M4-4 (antibody, V domains shown)
VH: EVQLVESGGGLVKPGGSLRLSCAASGFTFSSRGMSWVRQAPGKGLEWVSTISFGDIYTYYPDSVKGRFTISRDNAKNSLYLQMNSLRAEDTAVYYCARPNDGYFDYWGQGTLVTVSS
VL: DIVMTQSPATLSVSPGERATLSCKASQDVSTDVAWYQQKPGQAPRLLIYWASTRHTGVPDRFSGSGSGTDFTLTISSLQSEDFAVYYCQQHYSTPWTFGGGTKVEIKR
Regarding B1, the “dissociation constant against REGN10933 and REGN10987” value was about 10 fold.

The values are drawn from patent publication US20230417748A1 (GREEN CROSS, published 2023).
